doi:10.1101/2025.01.16.633226
Read-outs that look alike come from different tables or passages of the source.

T1: LARP6 (ITC) (UniProt Q9BRS8 70-295)
T1 sequence: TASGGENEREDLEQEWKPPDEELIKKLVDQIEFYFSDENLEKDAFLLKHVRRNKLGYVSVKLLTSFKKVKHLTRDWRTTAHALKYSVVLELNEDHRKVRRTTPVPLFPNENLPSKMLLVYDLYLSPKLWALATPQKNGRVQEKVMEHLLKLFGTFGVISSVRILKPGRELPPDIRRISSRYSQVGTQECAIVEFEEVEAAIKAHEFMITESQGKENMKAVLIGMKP

T2: LARP6 (70-295) (UniProt Q9BRS8 70-295)
T2 sequence: T1 sequence

B1: CCNI-5'UTR (ssRNA)
RNA: GGGUCAUCAUGGAACUAAUUCGCUGACCGACCCAGCGGCCGCAGCCGUGCGUCCCGCUCG
B2: LRP1-CDS (ssRNA)
RNA: CUGCAUGUGCACAGCCGGCUAUAGCCUCCGGAGUGGCCAGCAGGCCUGCGAGGGCGUAGG
B3: COL5A1-CDS (ssRNA)
RNA: CUGCUGCUGCUGCUGUGGGCGCCGCCUCCGAGCCGCGCAGCUCAGCCAGCAGAUCUCCUG
B4: COL1A1-TIS (structured_RNA)
RNA: CCAGCCACAAAGAGUCUACAUGUCUAGGGUCUAGACAUGUUCAGCUUUGUGGACCUCCGG

Legend:
LARP6 (ITC) [1] = molecular target: T1, LARP6 (ITC); experiment: ITC
LARP6 (70-295) [2] = molecular target: T2, LARP6 (70-295); experiment: TR-FRET competition
LARP6 (70-295) [3] = molecular target: T2, LARP6 (70-295); experiment: TR-FRET competition; remark: listed apart in the source
LARP6 (ITC) [4] = molecular target: T1, LARP6 (ITC); experiment: ITC; remark: listed apart in the source
LARP6 (70-295) [5] = molecular target: T2, LARP6 (70-295); experiment: TR-FRET competition; remark: listed apart in the source
LARP6 (ITC) [6] = molecular target: T1, LARP6 (ITC); experiment: ITC; remark: listed apart in the source

Row | Binder | IC50 (LARP6 (70-295) [3]) [nM] | binding result (LARP6 (70-295) [5]) | binding result (LARP6 (ITC) [6]) | other results
1 | B1 | – | – | – | binding result (LARP6 (ITC) [1]): no binding; binding result (LARP6 (70-295) [2]): no binding
2 | CCACAAAGAGUCUACAUGUCUAGGGUCUAGACAUGUUCAGCUUUGUGG (structured_RNA) [A1 (COL1A1 5'SL)] | 6.84 | – | – | Kd (LARP6 (ITC) [4]): > 400 nM
3 | B2 | – | binds | binds | –
4 | B3 | – | binds | binds | –
5 | B4 | 2.71 | – | – | Kd (LARP6 (ITC) [1]): 400 nM
